Measured values as given in US20240358755A1 (IMMATICS BIOTECHNOLOGIES, published 2024).

B1: DVDIHKDLY (peptide)
peptide: DVDIHKDLY
B2: SADTAELLL (peptide)
peptide: SADTAELLL
B3: ETNTIEFIY (peptide)
peptide: ETNTIEFIY
B4: ASSPVILLL (peptide)
peptide: ASSPVILLL
B5: FSEIFQDFL (peptide)
peptide: FSEIFQDFL
B6: EAAPNIMHY (peptide)
peptide: EAAPNIMHY
B7: LIDSLLLLL (peptide)
peptide: LIDSLLLLL
B8: RADEEQASF (peptide)
peptide: RADEEQASF
B9: YSSEIWDLY (peptide)
peptide: YSSEIWDLY
B10: NSENLLVY (peptide)
peptide: NSENLLVY
B11: LNFSDVFLY (peptide)
peptide: LNFSDVFLY
B12: VSPDEVLALW (peptide)
peptide: VSPDEVLALW
B13: TVDKGELLY (peptide)
peptide: TVDKGELLY
B14: FTQKINSTW (peptide)
peptide: FTQKINSTW
B15: NSDLFYLLL (peptide)
peptide: NSDLFYLLL
B16: NVSFEVSLLY (peptide)
peptide: NVSFEVSLLY
B17: EEGRIITKW (peptide)
peptide: EEGRIITKW
B18: SQAKQITIW (peptide)
peptide: SQAKQITIW
B19: VEAPHLPSF (peptide)
peptide: VEAPHLPSF
B20: VEGVHFVQLL (peptide)
peptide: VEGVHFVQLL
B21: FDLNIGSAY (peptide)
peptide: FDLNIGSAY
B22: RELGVGIAL (peptide)
peptide: RELGVGIAL
B23: REQLDGATL (peptide)
peptide: REQLDGATL
B24: GEAAAARPV (peptide)
peptide: GEAAAARPV
B25: TEMSVSALY (peptide)
peptide: TEMSVSALY
B26: WETRLHNLW (peptide)
peptide: WETRLHNLW
B27: KEFAFLEHSL (peptide)
peptide: KEFAFLEHSL
B28: AEGPDHHSL (peptide)
peptide: AEGPDHHSL
B29: REVAGASAL (peptide)
peptide: REVAGASAL
B30: TEIGTVIKLF (peptide)
peptide: TEIGTVIKLF
B31: AETKQFWSA (peptide)
peptide: AETKQFWSA
B32: KEIEAQEAA (peptide)
peptide: KEIEAQEAA
B33: METADRPEW (peptide)
peptide: METADRPEW
B34: VFLLLPYPRF (peptide)
peptide: VFLLLPYPRF
B35: VWILQKVNLAF (peptide)
peptide: VWILQKVNLAF
B36: SQIKSPVVF (peptide)
peptide: SQIKSPVVF
B37: NFHTLAQQLLF (peptide)
peptide: NFHTLAQQLLF
B38: SHSSPTVSF (peptide)
peptide: SHSSPTVSF
B39: VFVISGSHLF (peptide)
peptide: VFVISGSHLF
B40: LWALAIPSL (peptide)
peptide: LWALAIPSL
B41: VYIASSFKI (peptide)
peptide: VYIASSFKI
B42: VLYPSHSSF (peptide)
peptide: VLYPSHSSF
B43: IFTGRNAYF (peptide)
peptide: IFTGRNAYF
B44: LYLETRSEF (peptide)
peptide: LYLETRSEF
B45: EYLGSENVF (peptide)
peptide: EYLGSENVF
B46: SYLKDHLSL (peptide)
peptide: SYLKDHLSL
B47: KFPPSASEF (peptide)
peptide: KFPPSASEF
B48: FQLSGPVTF (peptide)
peptide: FQLSGPVTF
B49: AWNESSAWLL (peptide)
peptide: AWNESSAWLL
B50: FYNPRPPLI (peptide)
peptide: FYNPRPPLI
B51: ILAPPQRISF (peptide)
peptide: ILAPPQRISF
B52: QYLTYYPSF (peptide)
peptide: QYLTYYPSF
B53: IWRALGSLF (peptide)
peptide: IWRALGSLF

target: T1, HLA-A*01:01 (human); assay: UV peptide exchange, anti-b2m ELISA; exchange yield grade
T1 construct: Peptide-receptive MHC class I monomer: a UV-sensitive peptide (not specified) is cleaved and exchanged with the test peptide
Description: (§1) Candidate peptides for T cell based therapies according to the present invention were further tested for their MHC binding capacity (affinity). The individual peptide-MHC complexes were produced by UV-ligand exchange, where a UV-sensitive peptide is cleaved upon UV-irradiation and exchanged with the peptide of interest as analyzed. Only peptide candidates that can effectively bind and stabilize the peptide-receptive MHC molecules prevent dissociation of the MHC complexes. To determine the yield of the exchange reaction, an ELISA was performed based on the detection of the light chain (β2m) of stabilized MHC complexes. The assay was performed as generally described in Rodenko et al. (Rodenko et al., 2006).
(§2) 96 well MAXISorp plates (NUNC) were coated over night with 2 μg/ml streptavidin in PBS at room temperature, washed 4× and blocked for 1 h at 37° C. in 2% BSA containing blocking buffer. […] Peptide-MHC monomers of the UV-exchange reaction were diluted 100-fold in blocking buffer. Samples were incubated for 1 h at 37° C., washed four times, incubated with 2 μg/ml HRP conjugated anti-β2m for 1 h at 37° C., washed again and detected with TMB solution that is stopped with […]. Absorption was measured at 450 nm.

Question: B1 was tested. Which peptide exchange yield did it give?
Answer: The peptide exchange yield was at least 75%.

Question: With B2 as the binder, how does the peptide exchange yield read?
Answer: Its peptide exchange yield is 20 to 50%.

Question: With B3 as the binder, how does the peptide exchange yield read?
Answer: Its peptide exchange yield is at least 75%.

Question: How did the peptide exchange yield turn out when B4 was run?
Answer: The peptide exchange yield was 20 to 50%.

Question: How did the peptide exchange yield turn out when B5 was run?
Answer: The peptide exchange yield was 50 to 75%.

Question: For B6, which peptide exchange yield is on record?
Answer: Its peptide exchange yield is 20 to 50%.

Question: Which peptide exchange yield does the source give for B7 here?
Answer: Its peptide exchange yield is 50 to 75%.

Question: With B8 as the binder, how does the peptide exchange yield read?
Answer: The peptide exchange yield was 20 to 50%.

Question: With B9 as the binder, how does the peptide exchange yield read?
Answer: The peptide exchange yield was at least 75%.

Question: B10 was tested. Which peptide exchange yield did it give?
Answer: The peptide exchange yield was 50 to 75%.

Question: Which peptide exchange yield does the source give for B11 here?
Answer: Its peptide exchange yield is 20 to 50%.

Question: How did the peptide exchange yield turn out when B12 was run?
Answer: Its peptide exchange yield is 20 to 50%.

Question: B13 was tested. Which peptide exchange yield did it give?
Answer: The peptide exchange yield was at least 75%.

Question: For B14, which peptide exchange yield is on record?
Answer: The peptide exchange yield was 20 to 50%.

Question: How did the peptide exchange yield turn out when B15 was run?
Answer: Its peptide exchange yield is at least 75%.

Question: How did the peptide exchange yield turn out when B16 was run?
Answer: The peptide exchange yield was at least 75%.

target: HLA-B*44:05 (human); assay: as above
Description: as §1, §2

Question: Does B17 bind?
Answer: Result: binds

Question: Does B18 bind?
Answer: Result: binds

Question: Does B19 bind?
Answer: Result: binds

Question: Does B20 bind?
Answer: Result: binds

Question: Does B21 bind?
Answer: Result: binds

Question: Does B22 bind?
Answer: Result: binds

Question: Does B23 bind?
Answer: Result: binds

Question: Does B24 bind?
Answer: Result: binds

Question: Does B25 bind?
Answer: Result: binds

Question: Does B26 bind?
Answer: Result: binds

Question: Does B27 bind?
Answer: Result: binds

Question: Does B28 bind?
Answer: Result: binds

Question: Does B29 bind?
Answer: Result: binds

Question: Does B30 bind?
Answer: Result: binds

Question: Does B31 bind?
Answer: Result: binds

Question: Does B32 bind?
Answer: Result: binds

Question: Does B33 bind?
Answer: Result: binds

target: T2, HLA-A*24:02 (human); assay: allele assigned to HLA ligand eluted from tissue (IP, LC-MS)
T2 construct: Peptide-receptive MHC class I monomer in the UV-ligand exchange assay

Question: Does B34 bind?
Answer: Result: binds

Question: Does B35 bind?
Answer: Result: binds

Question: Does B36 bind?
Answer: Result: binds

Question: Does B37 bind?
Answer: Result: binds

Question: Does B38 bind?
Answer: Result: binds

Question: Does B39 bind?
Answer: Result: binds

Question: Does B40 bind?
Answer: Result: binds

Question: Does B41 bind?
Answer: Result: binds

Question: Does B42 bind?
Answer: Result: binds

Question: Does B43 bind?
Answer: Result: binds

Question: Does B44 bind?
Answer: Result: binds

Question: Does B45 bind?
Answer: Result: binds

Question: Does B46 bind?
Answer: Result: binds

Question: Does B47 bind?
Answer: Result: binds

Question: Does B48 bind?
Answer: Result: binds

Question: Does B49 bind?
Answer: Result: binds

Question: Does B50 bind?
Answer: Result: binds

Question: Does B51 bind?
Answer: Result: binds

Question: Does B52 bind?
Answer: Result: binds

Question: Does B53 bind?
Answer: Result: binds
